{
  "source": "patent US20190345232A1",
  "about": "(GENEURO, published 2019)",
  "molecular_target": "T1, linear peptide SLDKHKHKKLQSFYP (SEQ ID NO:9) from HERV-K-Env (human endogenous retrovirus type K …)",
  "T1 construct": "15-mer synthesized on a solid support in the Pepscan peptide array; It corresponds to the 298-312 region of the HERV-K-Env protein described by Dewannieux et al 2005",
  "T1 peptide": "SLDKHKHKKLQSFYP",
  "test": "Pepscan peptide array ELISA, antibody at 1 µg/ml",
  "data": [
    {"binder": "GN_mAb_Env_K01 (antibody, V domains shown, also called GN K01; GN K01 Ig) VH: QVQLQQPGAELVRPGASVKLSCKASGYTFTSYWMNWVKQRPEQGLEWIGRIDPYDSETHYNQKFKDKAILTVDKSSSTAYMQLSSLTSEDSAVYYCASLYYYGISLWGQGTLVTVS VL: not shown", "values": [
      {"measurement": "binding result", "value": "binds"}
    ]}
  ]
}
